Changes are numbered by the printed parent chain. Numbers in names are those of the source.

The values that follow come from article PMC6677831, “X-ray Crystallographic Structure and Oligomerization of Gloeobacter Rhodopsin” (Scientific Reports, 2019).

Data set [1] addresses T1, Gloeobacter rhodopsin (GR) (Gloeobacter violaceus, UniProt Q7NP59).
T1 construct: gene gll0198; wild type, C-terminal 6xHis tag, expressed in E. coli C43(DE3) with added retinal; 33 kDa; monomer at pH 3.0, pentamer at pH 8.0 in DDM
The experiment in a line: X-ray crystal structure, […] A. The format is binding. Conditions: covalent, protonated Schiff base at Lys257; dark state; bicelle crystals, pH 3.4, 100 K.

Data set [2] has as its target Mastigocladopsis repens halorhodopsin (Mastigocladopsis repens). The experiment in a line: not stated; unpublished observation of the authors.
Data set [3] concerns the molecule itself. The experiment in a line: SEC; Superdex 200 10/300 GL; 20 mM Tris-HCl pH 8.0, 300 mM NaCl, 0.04% DDM. On the technique in general: Size exclusion chromatography separates by hydrodynamic size, large species first.
Data set [4] concerns the molecule itself. The experiment in a line: DEER spectroscopy; Q-band, 80 K, 20% deuterated glycerol, GR-67R1 in detergent micelles at pH 8.0; distances between spin labels of protomers.

`CC1=C(/C=C/C(C)=C/C=C/C(C)=C/C=O)C(C)(C)CCC1` [all-trans-retinal]: the “X-ray crystal structure, 2.0 A” value in data set [1] is listed as “the all-trans-retinal chromophore is covalently bound to the opsin protein moiety via a Schiff base”.

Consider “Mastigocladopsis repens halorhodopsin (natural protein)”, for which the stoichiometry N in data set [2] was 3.

B1: Gloeobacter rhodopsin (natural protein, Gloeobacter violaceus PCC 7421)
chain: MLMTVFSSAPELALLGSTFAQVDPSNLSVSDSLTYGQFNLVYNAFSFAIAAMFASALFFFSAQALVGQRYRLALLVSAIVVSIAGYHYFRIFNSWDAAYVLENGVYSLTSEKFNDAYRYVDWLLTVPLLLVETVAVLTLPAKEARPLLIKLTVASVLMIATGYPGEISDDITTRIIWGTVSTIPFAYILYVLWVELSRSLVRQPAAVQTLVRNMRWLLLLSWGVYPIAYLLPMLGVSGTSAAVGVQVGYTIADVLAKPVFGLLVFAIALVKTKADQESSEPHAAIGAAANKSGGSLIS
modifications: all-trans-retinal covalently bound to Lys257 via a protonated Schiff base
notes: Gloeobacter rhodopsin (GR), light-driven proton pump of Gloeobacter violaceus PCC 7421; 33 kDa; Membrane protein in detergent micelles (0.04% DDM) in the oligomerisation experiments; also called GR; wild-type GR; source: E. coli C43(DE3), purified (TALON Co2+ column, Superdex 200) in OG or DDM
As to B1, the binding result in data set [3] is “binds”.

B2: spin-labeled GR-67R1 (natural protein, Gloeobacter violaceus PCC 7421)
chain: B1 chain with G67C
modifications: R1 nitroxide side chain at Cys67; all-trans-retinal bound to Lys257 via a Schiff base
notes: Gloeobacter rhodopsin (GR) of Gloeobacter violaceus PCC 7421 with G67C, spin-labeled at 67; also called spin labeled G67C mutant of GR
Consider B2, for which the “stoichiometry N” value in data set [4] was found to be 5.

By stoichiometry N is commonly meant the number of molecules, sites or subunits per partner or assembly.
